Source: publication PMC11860814

Legend:
[1] = biological target: Cry1Ia trypsin intermediate (T-Int) (Bacillus thuringiensis); experiment: SEC
[2] = biological target: Cry1Ia trypsin intermediate (T-Int) (Bacillus thuringiensis); experiment: SDS-PAGE under non-denaturing conditions; SDS-12%PAGE of SEC peak fractions; loading buffer without SDS or β-mercaptoethanol, heated at 50 °C for 3 min to preserve oligomers
[3] = biological target: Cry1Ia38 protoxin (Bacillus thuringiensis); experiment: SEC; Superdex-200 10/300 GL on an ÄKTA Explorer 100; sizes interpolated from protein standards (44-669 kDa); purified proteins loaded
[4] = biological target: Cry1Ia38 protoxin (Bacillus thuringiensis); experiment: SDS-PAGE under non-denaturing conditions; SDS-12%PAGE of SEC peak fractions; loading buffer without SDS or β-mercaptoethanol, heated at 50 °C for 3 min to preserve oligomers
[5] = biological target: Cry1Ia gut fluid intermediate (GF-Int) (Bacillus thuringiensis); experiment: SEC
[6] = biological target: fully trypsinized Cry1Ia protein (toxin) (Bacillus thuringiensis); experiment: SEC; Superdex-200 10/300 GL on an ÄKTA Explorer 100; sizes interpolated from protein standards (44-669 kDa); purified proteins loaded

Cry1Ia trypsin intermediate (T-Int) (domain or fragment)
stoichiometry N [1]: 2
stoichiometry N [2]: 2

Cry1Ia38 protoxin (natural protein)
stoichiometry N [3]: 2
stoichiometry N [4]: 2

Cry1Ia gut fluid intermediate (GF-Int) (domain or fragment)
stoichiometry N [5]: 2

fully trypsinized Cry1Ia protein (toxin) (domain or fragment)
stoichiometry N [6]: 2
